We go through one sequence from US20230285635.

Data set [1] deals with CD31 (PECAM-1) (UniProt P16284). As to the kind of experiment: flow. As to conditions: positions printed as 6 (n in SEQ ID NO: 1) are modified bases, identity not stated in the supplied text; at 600 and 800 nM aptamer, saturated at 600 nM; CD31-negative HepG2 and MSCs only about 2% bound.
The target is the same in data set [2]. The experiment in a line: cell_activity. To be noted: positions printed as 6 (n in SEQ ID NO: 1) are modified bases, identity not stated in the supplied text; aptamer-coated microfluidic device on ECM, shear stress 20 dynes/cm2; antibody coating 51%; more than 80% attached at 10 dynes/cm2.

Sequence “TCAGCCGCCAGCCAGTTCGTAGAGGAGGTACGTAATGTCTGGGTATACCCCGATAATTGACCAGAGCACCACAGAG [anti-CD31 aptamer]” yielded a binding signal (% of HUVECs bound) with CD31 (PECAM-1) [1] of 99. The sequence further yielded an activity (% HUVECs attached) in the data set with CD31 (PECAM-1) [2] of 61.5.
